Test results reported in patent US20260103529A1, “Amino Acid Sequences Directed Against the Melanocortin 4 Receptor and Polypeptides Comprising the Same for the Treatment of MC4R-Related Diseases and Disorders” (Confo Therapeutics N.V., priority 2022, published 2026).

Biological target: MC4R of the CHO stable cell line used for radioligand displacement (Table 1A) (UniProt P32245)
Assay: radioligand displacement, CHO stable cell line, n = 2; radioligand not named

Radioligand displacement (IC50 or Ki not stated): 6.48 nM
B1: pN0162 (VHH)
VHH: QVQLVESGGGLVQPGGSLRLSCAASGSAFSLNVMGWYRQTPGNQRALVAEITKDGSTNYADSAKGRFTISRDNAKNTVHLQMDSLKPEDTAVYYCKARTGRIVRPLDYWGQGTQVTVSS
